Experimental data reported in IntAct's records for PubMed 23559066.

B1: Autophagy-related protein 36 (Saccharomyces cerevisiae), P46983 (parent)
chain: MASVNNYQVDCGSRSARIQPRINNGIHDEESLFEVLELSEEEFELDFHRLKSFNDVRVINNPDLSPECTNTAISRDETLESASSAFEVPSDEIAILSISSDSNKNSPPSEQPAPALRNIRSSSNSDRIDEWCLGSHLFNELHQNVPQSSDGVNHGFPVYSFKERELYTSAKLKKLTNAQRIAVQKLSRDLYPILRTCYREKTRRQLLTYHHERIFDDIPSFFPQRDFIFNYYSMPLEFDRLSDVDIDSSSRSRFTDESTGETLNRSPSAASSSLENTSWFGWTLLSRFLDREW
partner: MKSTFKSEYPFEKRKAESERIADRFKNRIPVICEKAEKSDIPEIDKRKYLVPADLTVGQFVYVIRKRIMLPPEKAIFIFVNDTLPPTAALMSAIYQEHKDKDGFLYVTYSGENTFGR
B2: Autophagy-related protein 32 (Saccharomyces cerevisiae), P40458 (parent)
chain: MVLEYQQREGKGSSSKSMPPDSSSTTIHTCSEAQTGEDKGLLDPHLSVLELLSKTGHSPSPMGQNLVTSIDISGNHNVNDSISGSWQAIQPLDLGASFIPERCSSQTTNGSILSSSDTSEEEQELLQAPAADIINIIKQGQEGANVVSPSHPFKQLQKIISLPLPGKEKTPFNEQDDDGDEDEAFEEDSVTITKSLTSSTNSFVMPKLSLTQKNPVFRLLILGRTGSSFYQSIPKEYQSLFELPKYHDSATFPQYTGIVIIFQELREMVSLLNRIVQYSQGKPVIPICQPGQVIQVKNVLKSFLRNKLVKLLFPPVVVTNKRDLKKMFQRLQDLSLEYGEDVNEEDNDDEAIHTKSRSYCRNKKAENSKKKSPKSNKKPKRKKQKFFTSWFTWGISITIGISFGCCVTYFVTAAYEHQTVKSLSLRPSILASLLSLDSSSDTINTPATASPSSTEQFLWFDKGTLQINFHSDGFIMKSLTIIKETWGKMNTFVLHALSKPLKFLENLNKSSEFSIDESNRILALGYILL
partner: B1 partner
B3: Autophagy-related protein 36 (Saccharomyces cerevisiae), P46983 (parent)
chain: B1 chain
partner: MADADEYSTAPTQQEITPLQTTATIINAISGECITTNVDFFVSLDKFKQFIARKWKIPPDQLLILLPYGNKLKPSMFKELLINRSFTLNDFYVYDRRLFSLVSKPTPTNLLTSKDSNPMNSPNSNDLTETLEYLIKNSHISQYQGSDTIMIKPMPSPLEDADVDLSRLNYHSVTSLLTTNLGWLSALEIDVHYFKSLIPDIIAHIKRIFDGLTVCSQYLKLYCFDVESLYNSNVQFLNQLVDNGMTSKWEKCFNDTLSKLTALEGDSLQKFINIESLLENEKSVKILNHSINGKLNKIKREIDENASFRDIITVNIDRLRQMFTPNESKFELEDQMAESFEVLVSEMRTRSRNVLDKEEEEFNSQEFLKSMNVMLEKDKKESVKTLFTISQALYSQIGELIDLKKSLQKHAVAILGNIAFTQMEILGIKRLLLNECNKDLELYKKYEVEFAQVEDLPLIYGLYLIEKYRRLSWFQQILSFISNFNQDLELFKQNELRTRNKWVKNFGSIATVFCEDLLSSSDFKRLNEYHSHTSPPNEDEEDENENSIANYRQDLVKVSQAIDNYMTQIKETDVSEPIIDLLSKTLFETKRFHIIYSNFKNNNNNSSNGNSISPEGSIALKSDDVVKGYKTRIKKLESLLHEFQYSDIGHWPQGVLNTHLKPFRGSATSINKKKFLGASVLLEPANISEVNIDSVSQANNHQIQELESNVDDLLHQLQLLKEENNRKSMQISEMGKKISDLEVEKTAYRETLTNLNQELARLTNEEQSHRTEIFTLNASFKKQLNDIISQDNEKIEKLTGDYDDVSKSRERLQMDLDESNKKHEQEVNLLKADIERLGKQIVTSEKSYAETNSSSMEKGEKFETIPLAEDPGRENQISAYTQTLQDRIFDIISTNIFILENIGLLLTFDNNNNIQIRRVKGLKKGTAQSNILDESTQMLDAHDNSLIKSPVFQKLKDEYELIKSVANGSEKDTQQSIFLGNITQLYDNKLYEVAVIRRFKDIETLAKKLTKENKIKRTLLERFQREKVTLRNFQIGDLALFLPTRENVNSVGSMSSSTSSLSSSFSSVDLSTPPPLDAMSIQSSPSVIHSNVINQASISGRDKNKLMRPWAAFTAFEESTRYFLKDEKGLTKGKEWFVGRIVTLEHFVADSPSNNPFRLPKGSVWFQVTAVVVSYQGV
B4: Autophagy-related protein 32 (Saccharomyces cerevisiae), P40458 (parent)
chain: B2 chain
partner: B3 partner

Variants of: B1
Conditions: with atg8_yeast ATG8, P38182

effect of a mutation on the interaction	Variant
disrupting interaction	MASVNNYQVDCGSRSARIQPRINNGIHDEEALFEVLELSEEEFELDFHRLKSFNDVRVINNPDLSPECTNTAISRDETLESASSAFEVPSDEIAILSISSDSNKNSPPSEQPAPALRNIRSSSNSDRIDEWCLGSHLFNELHQNVPQSSDGVNHGFPVYSFKERELYTSAKLKKLTNAQRIAVQKLSRDLYPILRTCYREKTRRQLLTYHHERIFDDIPSFFPQRDFIFNYYSMPLEFDRLSDVDIDSSSRSRFTDESTGETLNRSPSAASSSLENTSWFGWTLLSRFLDREW [S31A]

Variants of: B1
Conditions: with atg8_yeast ATG8, P38182
Remark: another data set of the same source

effect of a mutation on the interaction	Variant
disrupting interaction	MASVNNYQVDCGSRSARIQPRINNGIHDEESLAEVAELSEEEFELDFHRLKSFNDVRVINNPDLSPECTNTAISRDETLESASSAFEVPSDEIAILSISSDSNKNSPPSEQPAPALRNIRSSSNSDRIDEWCLGSHLFNELHQNVPQSSDGVNHGFPVYSFKERELYTSAKLKKLTNAQRIAVQKLSRDLYPILRTCYREKTRRQLLTYHHERIFDDIPSFFPQRDFIFNYYSMPLEFDRLSDVDIDSSSRSRFTDESTGETLNRSPSAASSSLENTSWFGWTLLSRFLDREW [F33A;L36A]

Variants of: B2
Conditions: with atg8_yeast ATG8, P38182

effect of a mutation on the interaction	Variant
disrupting interaction	MVLEYQQREGKGSSSKSMPPDSSSTTIHTCSEAQTGEDKGLLDPHLSVLELLSKTGHSPSPMGQNLVTSIDISGNHNVNDAIAGAWQAIQPLDLGASFIPERCSSQTTNGSILSSSDTSEEEQELLQAPAADIINIIKQGQEGANVVSPSHPFKQLQKIISLPLPGKEKTPFNEQDDDGDEDEAFEEDSVTITKSLTSSTNSFVMPKLSLTQKNPVFRLLILGRTGSSFYQSIPKEYQSLFELPKYHDSATFPQYTGIVIIFQELREMVSLLNRIVQYSQGKPVIPICQPGQVIQVKNVLKSFLRNKLVKLLFPPVVVTNKRDLKKMFQRLQDLSLEYGEDVNEEDNDDEAIHTKSRSYCRNKKAENSKKKSPKSNKKPKRKKQKFFTSWFTWGISITIGISFGCCVTYFVTAAYEHQTVKSLSLRPSILASLLSLDSSSDTINTPATASPSSTEQFLWFDKGTLQINFHSDGFIMKSLTIIKETWGKMNTFVLHALSKPLKFLENLNKSSEFSIDESNRILALGYILL [S81A;S83A;S85A]

Variants of: B3
Conditions: with atg11_yeast ATG11, Q12527

effect of a mutation on the interaction	Variant
disrupting interaction	MASVNNYQVDCGSRSARIQPRINNGIHDEESLFEVLELSEEEFELDFHRLKSFNDVRVINNPDLSPECTNTAISRDETLESASSAFEVPSDEIAILAISSDSNKNSPPSEQPAPALRNIRSSSNSDRIDEWCLGSHLFNELHQNVPQSSDGVNHGFPVYSFKERELYTSAKLKKLTNAQRIAVQKLSRDLYPILRTCYREKTRRQLLTYHHERIFDDIPSFFPQRDFIFNYYSMPLEFDRLSDVDIDSSSRSRFTDESTGETLNRSPSAASSSLENTSWFGWTLLSRFLDREW [S97A]

Variants of: B4
Conditions: with atg11_yeast ATG11, Q12527

effect of a mutation on the interaction	Variant
disrupting interaction	MVLEYQQREGKGSSSKSMPPDSSSTTIHTCSEAQTGEDKGLLDPHLSVLELLSKTGHSPSPMGQNLVTSIDISGNHNVNDSISGSWQAIQPLDLGASFIPERCSSQTTNGSILASSDTAEEEQELLQAPAADIINIIKQGQEGANVVSPSHPFKQLQKIISLPLPGKEKTPFNEQDDDGDEDEAFEEDSVTITKSLTSSTNSFVMPKLSLTQKNPVFRLLILGRTGSSFYQSIPKEYQSLFELPKYHDSATFPQYTGIVIIFQELREMVSLLNRIVQYSQGKPVIPICQPGQVIQVKNVLKSFLRNKLVKLLFPPVVVTNKRDLKKMFQRLQDLSLEYGEDVNEEDNDDEAIHTKSRSYCRNKKAENSKKKSPKSNKKPKRKKQKFFTSWFTWGISITIGISFGCCVTYFVTAAYEHQTVKSLSLRPSILASLLSLDSSSDTINTPATASPSSTEQFLWFDKGTLQINFHSDGFIMKSLTIIKETWGKMNTFVLHALSKPLKFLENLNKSSEFSIDESNRILALGYILL [S114A;S119A]
